{
  "source": "patent US9980982B2",
  "about": "“HE4 based therapy for malignant disease” (Women & Infants Hospital of Rhode Island, priority 2011, dated 2018)",
  "key": {"[1]": {"tested_on": "CaOV-3", "assay": "Cell viability, exogenous recombinant HE4, CaOV-3", "type": "cell-based, Human"}, "[2]": {"tested_on": "SKOV-3 cells", "assay": "MTS cell viability assay, parental/wild-type SKOV-3 cells", "type": "cell-based, Human", "settings": "for effect of recombinant HE4 on cisplatin efficacy in SKOV-3 cells: combination or pre-treatment with HE4 (4 ng/mL in FIG. 10B) plus cisplatin", "protocol": "Cell growth and viability of cell lines (complete medium, 24 h incubation) was determined by the CellTiter 96® AQueous One Solution Assay (Promega Corp, Madison, Wis.) following the manufacturer's recommendations with modifications (Lange T S et al., 2008 PLOS One, 3(5):e2303). Experiments are expressed as the mean of triplicate determinations (X±SD) of a representative experiment in OD (cell growth) or % of absorbance by drug-treated versus untreated cells [=100%] (cell viability). Cisplatin (CDDP), paclitaxel, doxorubicin and camptothecin (CPT) were purchased from (Sigma Aldrich, St. Louis, Mo.).\nTo analyze the potential biological relevance of elevated HE4 production for ovarian cancer cells the efficacy of commonly used anticancer drugs was examined in a viability assay (FIG. 5). SKOV-3 clones or parental cells were treated with cisplatin, paclitaxel, doxorubicin, or camptothecin for 24 h in various concentrations as indicated and the cytotoxicity evaluated."}},
  "note": "“Also recorded” adds a separate entry of the source.",
  "data": [
    {"molecule": "recombinant HE4: exogenous recombinant human epididymal secretory protein E4 (protein) EKTGVCPELQADQNCTQECVSDSECADNLKCCSAGCATFCSLPNDKEGSCPQVNINFPQLGLCRDQCQVDSQCPGQMKCCRNGCGKVSCVTPNF", "values": [
      {"measurement": "effect on viability of CaOV-3", "setting": "[1]", "result": "suppressed the viability"},
      {"measurement": "effect of recombinant HE4 on cisplatin efficacy in SKOV-3 cells", "setting": "[2]", "result": "enhanced the efficacy of cisplatin; also recorded: synergized or enhanced suppression of cell-viability"},
      {"measurement": "effect of recombinant HE4 on cisplatin efficacy in SKOV-3 cells", "setting": "[2]; listed as HE4", "result": "enhanced the efficacy of cisplatin"},
      {"measurement": "effect on viability of SKOV-3 cells", "setting": "[2]; exogenous recombinant HE4", "result": "suppressed the viability of SKOV-3 cells"},
      {"measurement": "IC50", "setting": "[2]; proliferating ovarian cancer cells (SKOV-3), read-out: IC50, reduction of cell viability", "result": "1 to 8", "unit": "µM"}
    ]}
  ]
}
